Consider 1 substance from article doi:10.1101/2020.04.21.053124.

What is called stoichiometry N is the number of molecules, sites or subunits per partner or assembly.

This assay concerns the target MVI Spring bZip (1-914) (UniProt Q9UM54). The assay is described as follows: SEC. (In general: In gel filtration, larger molecules generally elute earlier.)

In the case of “MVI Spring bZip (1-914) (from UniProt Q9UM54 1-914)”, the stoichiometry N was found to be 2.
